Measurements taken from the supplement of paper PMC10567573.

B1: PPEF2 (parent)
chain: AFKAAALIQRWYRRYVARLEMRRR

Variants of: B1
Test: protein stability index of a GFP-peptide fusion (GPS, HEK-293T) (PSI 1-6); higher = more stable
Details: c terminus: a fixed tail appended
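Note: lentivirally expressed fusions sorted by FACS into six bins by GFP to DsRed ratio, PSI derived from sequencing read proportions per bin multiplied by bin number.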

Variant | protein stability index
AFKAAALIQRWYNRYVARLEMRRR | 1.15
AFKAAALIQRWYTRYVARLEMRRR | 1.8
AFKAAALIQRWYFRYVARLEMRRR | 2.06
AFKAAALIQRWYERYVARLEMRRR | 1.95
AFKAAALIQRWYIRYVARLEMRRR | 2.53
AFKAAALIQRWYMRYVARLEMRRR | 1.93
AFKAAALIQRWYKRYVARLEMRRR | 2.22
AFKAAALIQRWYQRYVARLEMRRR | 2.26
AFKAAALIQRWYPRYVARLEMRRR | 1.23
AFKAAALIQRWYLRYVARLEMRRR | 2.05
AFKAAALIQRWYHRYVARLEMRRR | 2.16
AFKAAALIQRWYARYVARLEMRRR | 1.62
AFKAAALIQRWYRRMVARLEMRRR | 5.14
AFKAAALIQRWYRRFVARLEMRRR | 3.39
AFKAAALIQRWYRRLVARLEMRRR | 3.82
AFKAAALIQRWYRREVARLEMRRR | 3.89
AFKAAALIQRWYRRTVARLEMRRR | 4.46
AFKAAALIQRWYRRHVARLEMRRR | 4.56
AFKAAALIQRWYRRWVARLEMRRR | 3.61
AFKAAALIQRWYRRAVARLEMRRR | 4.61
AFKAAALIQRWYRRPVARLEMRRR | 1.89
AFKAAALIQRWYRRRVARLEMRRR | 4.11
AFKAAALIQRWYRRGVARLEMRRR | 1.93
AFKAAALIQRWYRRDVARLEMRRR | 1.87

Variant | protein stability index
AFKAAALIQRWYRRQVARLEMRRR | 4.44
AFKAAALIQRWYRRNVARLEMRRR | 5.1
AFKAAALIQRWYRRCVARLEMRRR | 4.6
AFKAAALIQRWYRRVVARLEMRRR | 4.4
AFKAAALITRWYRRYVARLEMRRR | 3.39
AFKAAALILRWYRRYVARLEMRRR | 3.44
AFKAAALIERWYRRYVARLEMRRR | 1.59
AFKAAALIRRWYRRYVARLEMRRR | 3.48
AFKAAALINRWYRRYVARLEMRRR | 2.1
AFKAAALIYRWYRRYVARLEMRRR | 2.23
AFKAAALICRWYRRYVARLEMRRR | 2.71
AFKAAALIWRWYRRYVARLEMRRR | 2.98
AFKAAALIDRWYRRYVARLEMRRR | 1.86
AFKAAALIKRWYRRYVARLEMRRR | 3.59
AFKAAALIIRWYRRYVARLEMRRR | 2.27
AFKAAALIMRWYRRYVARLEMRRR | 2.37
AFKAAALIARWYRRYVARLEMRRR | 3.25
AFKAAALIFRWYRRYVARLEMRRR | 2.85
AFKAAALIVRWYRRYVARLEMRRR | 2.99
AFKAAALISRWYRRYVARLEMRRR | 2.54
AFKAAALIHRWYRRYVARLEMRRR | 2.16
AFKAAALIQRKYRRYVARLEMRRR | 5.21
AFKAAALIQRMYRRYVARLEMRRR | 2.84
AFKAAALIQRDYRRYVARLEMRRR | 2.79

Variant | protein stability index
AFKAAALIQRQYRRYVARLEMRRR | 2.57
AFKAAALIQRHYRRYVARLEMRRR | 2.28
AFKAAALIQRNYRRYVARLEMRRR | 4.17
AFKAAALIQRLYRRYVARLEMRRR | 3.79
AFKAAALIQRIYRRYVARLEMRRR | 2.81
AFKAAALIQRAYRRYVARLEMRRR | 4.29
AFKAAALIQRFYRRYVARLEMRRR | 3.99
AFKAAALIQRGYRRYVARLEMRRR | 2.55
AFKAAALIQRPYRRYVARLEMRRR | 2.62
AFKAAALIQRSYRRYVARLEMRRR | 4.12
AFKAAALIQREYRRYVARLEMRRR | 2.46
AFKAAALIQRYYRRYVARLEMRRR | 3.91
AFEAAALIQRWYRRYVARLEMRRR | 3.71
AFFAAALIQRWYRRYVARLEMRRR | 2.38
AFIAAALIQRWYRRYVARLEMRRR | 2.66
AFYAAALIQRWYRRYVARLEMRRR | 2.87
AFSAAALIQRWYRRYVARLEMRRR | 4.09
AFLAAALIQRWYRRYVARLEMRRR | 1.75
AFRAAALIQRWYRRYVARLEMRRR | 3.84
AFKAAALIQRWRRRYVARLEMRRR | 1.15
AFKAAALIQRWCRRYVARLEMRRR | 2.14
AFKAAALIQRWVRRYVARLEMRRR | 2.07
AFKAAALIQRWKRRYVARLEMRRR | 1.78
AFKAAALIQRWTRRYVARLEMRRR | 2.17

Variant | protein stability index
AFKAAALIQRWMRRYVARLEMRRR | 2.95
AFKAAALIQRWHRRYVARLEMRRR | 2.29
AFKAAALIQRWNRRYVARLEMRRR | 1.62
AFKAAALIQRWFRRYVARLEMRRR | 3.17
AFKAAALIQRWPRRYVARLEMRRR | 2.44
AFKAAALIQRWARRYVARLEMRRR | 2.35
AFKAAALIQRWERRYVARLEMRRR | 3.14
AFKAAALIQRWIRRYVARLEMRRR | 2.53
AFKAAALIQRWGRRYVARLEMRRR | 1.49
AFKAQALIQRWYRRYVARLEMRRR | 1.85
AFKAIALIQRWYRRYVARLEMRRR | 2.4
AFKATALIQRWYRRYVARLEMRRR | 2.55
AFKAGALIQRWYRRYVARLEMRRR | 2.94
AFKAPALIQRWYRRYVARLEMRRR | 2.08
AFKARALIQRWYRRYVARLEMRRR | 2.39
AFKAEALIQRWYRRYVARLEMRRR | 4.4
AFKANALIQRWYRRYVARLEMRRR | 2.11
AFKAFALIQRWYRRYVARLEMRRR | 1.98
AFKAHALIQRWYRRYVARLEMRRR | 2.67
AFKAAELIQRWYRRYVARLEMRRR | 3.81
AFKAAPLIQRWYRRYVARLEMRRR | 1.95
AFKAAVLIQRWYRRYVARLEMRRR | 4.97
AFKAAYLIQRWYRRYVARLEMRRR | 1.75
AFKAADLIQRWYRRYVARLEMRRR | 3.14

Variant | protein stability index
AFKAALLIQRWYRRYVARLEMRRR | 2.5
AFKAACLIQRWYRRYVARLEMRRR | 4.25
AFKAAKLIQRWYRRYVARLEMRRR | 2.83
AFKAATLIQRWYRRYVARLEMRRR | 4.02
AFKAAFLIQRWYRRYVARLEMRRR | 2.77
AFKAAQLIQRWYRRYVARLEMRRR | 3.88
AFKGAALIQRWYRRYVARLEMRRR | 3.69
AFKFAALIQRWYRRYVARLEMRRR | 3.17
AFKSAALIQRWYRRYVARLEMRRR | 2.13
AFKMAALIQRWYRRYVARLEMRRR | 2.25
AFKVAALIQRWYRRYVARLEMRRR | 2.55
AFKRAALIQRWYRRYVARLEMRRR | 3.46
AFKCAALIQRWYRRYVARLEMRRR | 3.15
AFKPAALIQRWYRRYVARLEMRRR | 2.38
AFKKAALIQRWYRRYVARLEMRRR | 3.27
AFKAAAMIQRWYRRYVARLEMRRR | 2.25
AFKAAAFIQRWYRRYVARLEMRRR | 3.21
AFKAAAAIQRWYRRYVARLEMRRR | 4.83
AFKAAATIQRWYRRYVARLEMRRR | 4.39
AFKAAAGIQRWYRRYVARLEMRRR | 2.33
AFKAAAIIQRWYRRYVARLEMRRR | 4.77
AFKAAANIQRWYRRYVARLEMRRR | 2.64
AFKAAARIQRWYRRYVARLEMRRR | 5.03
AFKAAASIQRWYRRYVARLEMRRR | 2.93

Variant | protein stability index
AFKAAAQIQRWYRRYVARLEMRRR | 4.96
AFKAAALIQFWYRRYVARLEMRRR | 2.88
AFKAAALIQHWYRRYVARLEMRRR | 2.51
AFKAAALIQDWYRRYVARLEMRRR | 1.67
AFKAAALIQTWYRRYVARLEMRRR | 2.1
AFKAAALIQGWYRRYVARLEMRRR | 1.88
AFKAAALIQSWYRRYVARLEMRRR | 2.27
AFKAAALIQLWYRRYVARLEMRRR | 1.71
AFKAAALIQNWYRRYVARLEMRRR | 3.6
AFKAAALIQAWYRRYVARLEMRRR | 2.4
AFKAAALIQRWYRMYVARLEMRRR | 2.2
AFKAAALIQRWYRAYVARLEMRRR | 2.17
AFKAAALIQRWYRQYVARLEMRRR | 2.74
AFKAAALIQRWYRPYVARLEMRRR | 1.59
AFKAAALIQRWYRHYVARLEMRRR | 2.42
AFKAAALIQRWYRDYVARLEMRRR | 1.66
AFKAAALIQRWYRFYVARLEMRRR | 2.29
AFKAAALIQRWYRVYVARLEMRRR | 1.07
AFKAAALIQRWYRNYVARLEMRRR | 2.83
AFKAAALIQRWYRYYVARLEMRRR | 1.79
AFKAAALIQRWYRTYVARLEMRRR | 2.49
AFKAAALIQRWYREYVARLEMRRR | 2.32
AFKAAALIQRWYRLYVARLEMRRR | 1.84
AFKAAALIQRWYRIYVARLEMRRR | 1.84

Variant | protein stability index
AFKAAALIQRWYRKYVARLEMRRR | 3
AFKAAALIQRWYRRYYARLEMRRR | 2.96
AFKAAALIQRWYRRYHARLEMRRR | 3.66
AFKAAALIQRWYRRYTARLEMRRR | 3.53
AFKAAALIQRWYRRYWARLEMRRR | 2.32
AFKAAALIQRWYRRYPARLEMRRR | 1.92
AFKAAALIQRWYRRYIARLEMRRR | 3.94
AFKAAALIQRWYRRYCARLEMRRR | 3.05
AFKAAALIQRWYRRYLARLEMRRR | 4
AFKAAALIQRWYRRYAARLEMRRR | 3.94
AFKAAALIQRWYRRYKARLEMRRR | 4.73
AFKAAALIQRWYRRYNARLEMRRR | 3.02
AFKAAALIQRWYRRYFARLEMRRR | 3.25
AFKAAALIQRWYRRYRARLEMRRR | 5.4
AFKAAALIQRWYRRYMARLEMRRR | 4.45
AFKAAALIQRWYRRYEARLEMRRR | 2.13
AFKAAALIQRWYRRYSARLEMRRR | 4.23
AFKAAALIQRWYRRYVRRLEMRRR | 3.67
AFKAAALIQRWYRRYVGRLEMRRR | 3.96
AFKAAALIQRWYRRYVIRLEMRRR | 2.96
AFKAAALIQRWYRRYVKRLEMRRR | 3.57
AFKAAALIQRWYRRYVPRLEMRRR | 2.09
AFKAAALIQRWYRRYVCRLEMRRR | 2.53
AFKAAALIQRWYRRYVFRLEMRRR | 2.6

Variant | protein stability index
AFKAAALIQRWYRRYVERLEMRRR | 3.13
AFKAAALIQRWYRRYVHRLEMRRR | 2.63
AFKAAALIQRWYRRYVDRLEMRRR | 2.33
AFKAAALIQRWYRRYVQRLEMRRR | 3.62
AFKAAALIQRWYRRYVLRLEMRRR | 3.75
AFKAAALIQRWYRRYVNRLEMRRR | 3.84
AFKAAALAQRWYRRYVARLEMRRR | 2.38
AFKAAALHQRWYRRYVARLEMRRR | 2.16
AFKAAALLQRWYRRYVARLEMRRR | 3.02
AFKAAALYQRWYRRYVARLEMRRR | 2.19
AFKAAALCQRWYRRYVARLEMRRR | 3.52
AFKAAALNQRWYRRYVARLEMRRR | 2.98
AFKAAALFQRWYRRYVARLEMRRR | 2.29
AFKAAALMQRWYRRYVARLEMRRR | 1.94
AFKAAALTQRWYRRYVARLEMRRR | 2.37
AFKAAALKQRWYRRYVARLEMRRR | 3.15
AFKAAALVQRWYRRYVARLEMRRR | 3.41
AFKAAALSQRWYRRYVARLEMRRR | 4.29
AFKAAALDQRWYRRYVARLEMRRR | 3.02
AFKAAALRQRWYRRYVARLEMRRR | 3.09
